# Source: paper PMC7113277
# Target: recombinant EBV LMP2A N-terminal cytoplasmic domain (LMP2A-NCD), His6-tagged (Epstein-Barr virus) (UniProt P13285)
# Assay: SPR; BIAcore T200; LMP2A-NCD immobilised on Sensor Chip CM5; affibodies flowed at 2.5-20 μM; global fit, one-to-one Langmuir binding model
# UniProt P13285, sequence (P13285 1-119): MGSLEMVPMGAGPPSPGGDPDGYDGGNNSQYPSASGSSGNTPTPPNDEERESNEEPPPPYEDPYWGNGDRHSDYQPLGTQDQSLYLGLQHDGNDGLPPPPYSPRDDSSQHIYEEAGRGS
substance,measurement,value
ZWT affibody (wild SPA-Z scaffold) (designed binder),koff,5.96e-05 s⁻¹
